Article PMC7318843 (Neuron, 2020)

Target: biotin-labeled Aβ40 (UniProt P05067 672-711, biotin (position not given))
Experiment: pull-down

binding result: binds
B1: MDK protein (Midkine), human recombinant (natural protein, UniProt P21741 21-143, looked up)
chain: VAKKKDKVKKGGPGSECAEWAWGPCTPSSKDCGVGFREGTCGAQTQRIRCRVPCNWKKEFGADCKYKFENWGACDGGTGTKVRQGTLKKARYNAQCQETIRVTKPCTPKTKAKAKAKKGKGKD
